± gives the standard deviation of the averaged measurements.
Tested on: ATP
Assay: switch fluorescence ratio, 500 uM ATP over buffer (Cy3 cluster intensity, sum of 5 cycles each) (fold (ratio)); higher = stronger signal-on switching upon ATP binding; sequences stand for … in TCGTCGGCAGCGTCAGATGTGTATAAGAGACAGTTTTTTTTTTTTTTTTTTTTTTTTT…TC
Conditions: aptamer strand: ATP DNA aptamer (quencher-CACCTGGGGGAGTATTGCGGAGGAAGG + anchor), 100 nM annealed; ATP concentration: 500 uM
Summary of the method: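 Between each of five buffer/ATP cycles, the flow-cell was stripped with NaOH and re-annealed. Each cycle imaged Cy3-labelled switching-strand clusters, annealed to 100 nM quencher-labelled ATP aptamer on a modified Illumina MiSeq flow-cell, first in selection buffer and then after 15 min with 500 uM ATP at 22 °C. The fluorescence ratio is summed target-cycle over summed buffer-cycle Cy3 intensity per cluster, averaged per switch-domain sequence, with clusters outside 100-1000 RFU excluded.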
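Further: ATP exposure 15 min at 22 °C before imaging.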

| Sequence | switch fluorescence ratio |
| --- | --- |
| TCTGTAAATT | 0.991 ± 0.03 |
| TCTGTAGGTT | 1.03 ± 0.024 |
| TCTGTATTCG | 1.005 ± 0.0033 |
| TCTGTATTTG | 0.981 ± 0.028 |
| TCTGTGTAGC | 1 ± 0.027 |
| TCTGTTAATT | 1.01 ± 0.014 |
| TCTTACAATT | 0.971 ± 0.036 |
| TCTTAGATGA | 0.9765 ± 0.003 |
| TCTTATATTT | 0.9977 ± 0.0021 |
| TCTTATGGAA | 1.04 ± 0.047 |
| TCTTATTTGG | 1.01 ± 0.05 |
| TCTTCTAA | 0.9972 ± 0.0047 |
| TCTTGAACGT | 0.978 ± 0.018 |
| TCTTGATTAT | 0.9795 ± 0.0085 |
| TCTTGGAGCT | 1.01 ± 0.019 |
| TCTTGGCGCC | 0.97579 ± 0.00051 |
| TCTTGGGGG | 1.05 ± 0.012 |
| TCTTGGGGGA | 0.996 ± 0.031 |
| TCTTGGTCGT | 0.9677 ± 0.0051 |
| TCTTGTAATC | 1.07 ± 0.055 |
| TCTTGTATTC | 0.9938 ± 0.0094 |
| TCTTTACCGA | 1.02 ± 0.036 |
| TCTTTACGGT | 1.04 ± 0.045 |
| TCTTTACTAC | 1.08 ± 0.081 |
| TCTTTATAAA | 1.02 ± 0.038 |
| TCTTTCCTTC | 1.04 ± 0.12 |

| Sequence | switch fluorescence ratio |
| --- | --- |
| TCTTTCTTTT | 1.03 ± 0.027 |
| TCTTTGCAGC | 1.025 ± 0.0041 |
| TCTTTGCCGT | 0.982 ± 0.021 |
| TCTTTGGTTT | 1.17 ± 0.25 |
| TCTTTTAGGC | 1 ± 0.036 |
| TCTTTTCGTT | 1 ± 0.011 |
| TCTTTTGGAT | 0.994 ± 0.019 |
| TCTTTTTCCT | 1.045 ± 0.0054 |
| TCTTTTTCTT | 1.01 ± 0.033 |
| TCTTTTTGCA | 1.03 ± 0.014 |
| TCTTTTTGGC | 1.01 ± 0.034 |
| TGAAAAAAAG | 0.973 ± 0.04 |
| TGAAAAACAC | 1.12 ± 0.17 |
| TGAAAATACC | 1.011 ± 0.01 |
| TGAAAATGCG | 1.01 ± 0.057 |
| TGAAAATTAG | 0.9688 ± 0.0049 |
| TGAAAATTCA | 1.05 ± 0.077 |
| TGAAAATTCC | 1.12 ± 0.073 |
| TGAAACAGGT | 1.001 ± 0.0032 |
| TGAAACGGAA | 1.15 ± 0.079 |
| TGAAAGTGCT | 0.973 ± 0.02 |
| TGAAATAGGG | 1.0312 ± 0.00097 |
| TGAAATATCA | 1.0208 ± 0.00019 |
| TGAAATCCGA | 1 ± 0.027 |
| TGAAATTTAA | 1 ± 0.0065 |
| TGAAATTTAG | 1.01 ± 0.047 |

| Sequence | switch fluorescence ratio |
| --- | --- |
| TGAAATTTG | 1.01 ± 0.03 |
| TGAACAAGAT | 1.01 ± 0.022 |
| TGAACAGGGG | 0.9869 ± 0.0078 |
| TGAACGAGGG | 1.01 ± 0.022 |
| TGAACGGATC | 1.03 ± 0.008 |
| TGAACGTCCA | 1.09 ± 0.015 |
| TGAACGTTTT | 1.04 ± 0.029 |
| TGAACTAGTA | 0.9828 ± 0.0046 |
| TGAAGATGGG | 1 ± 0.019 |
| TGAAGATTTA | 1.03 ± 0.017 |
| TGAAGCAGGG | 1.13 ± 0.018 |
| TGAAGCATTT | 1.17 ± 0.14 |
| TGAAGGAGTG | 0.955 ± 0.038 |
| TGAAGGATTT | 1.01 ± 0.034 |
| TGAAGGGGCC | 2.74 ± 2.5 |
| TGAAGGGGGA | 0.995 ± 0.041 |
| TGAAGTGAAT | 1.01 ± 0.011 |
| TGAAGTTGG | 1.01 ± 0.019 |
| TGAATAATCT | 1.055 ± 0.004 |
| TGAATAGGGC | 0.9882 ± 0.0097 |
| TGAATATTAA | 0.985 ± 0.025 |
| TGAATGAATA | 1.027 ± 0.0085 |
| TGAATGAATT | 0.997 ± 0.022 |
| TGAATGATCG | 1.07 ± 0.032 |
| TGAATGGAAT | 1.04 ± 0.047 |
| TGAATTAAGT | 1.029 ± 0.003 |

| Sequence | switch fluorescence ratio |
| --- | --- |
| TGAATTAGAA | 0.968 ± 0.018 |
| TGAATTTGTT | 0.995 ± 0.038 |
| TGAATTTTAA | 0.995 ± 0.042 |
| TGACAACAGC | 1.049 ± 0.0091 |
| TGACAACCGG | 1.05 ± 0.021 |
| TGACAGTAAC | 1.25 ± 0.25 |
| TGACATCTA | 1.07 ± 0.057 |
| TGACCCGGGT | 1.018 ± 0.0072 |
| TGACCGAGAA | 1.06 ± 0.028 |
| TGACGCCGAA | 1.07 ± 0.019 |
| TGACGGCGGA | 1.02 ± 0.023 |
| TGACGGGAAG | 0.9862 ± 0.0012 |
| TGACGGGGAT | 1.25 ± 0.33 |
| TGACGGGTAC | 1.87 ± 0.087 |
| TGACGTCTGG | 1.015 ± 0.0071 |
| TGACGTGCGC | 1.143 ± 0.0093 |
| TGACGTTTTG | 0.9792 ± 0.0046 |
| TGACTACGCG | 1.18 ± 0.02 |
| TGACTATGCT | 0.98 ± 0.02 |
| TGACTGGACG | 1 ± 0.028 |
| TGACTGGGCG | 1.0063 ± 0.00065 |
| TGACTGGGGT | 1.02 ± 0.068 |
| TGACTGTGTG | 0.984 ± 0.017 |
| TGACTGTTTC | 1.01 ± 0.024 |
| TGACTTTTCG | 0.995 ± 0.032 |
| TGAGAAAGAG | 2.15 ± 2 |

| Sequence | switch fluorescence ratio |
| --- | --- |
| TGAGAAAGGA | 0.99 ± 0.028 |
| TGAGAAGCGG | 0.97 ± 0.039 |
| TGAGAAGTTT | 0.992 ± 0.023 |
| TGAGAATTTG | 0.976 ± 0.048 |
| TGAGACTTAC | 1.15 ± 0.06 |
| TGAGAGAAGG | 1.01 ± 0.014 |
| TGAGAGAGTG | 1.02 ± 0.059 |
| TGAGAGCAGG | 1.08 ± 0.025 |
| TGAGAGCGTC | 0.89 ± 0.14 |
| TGAGAGGAAG | 0.989 ± 0.018 |
| TGAGAGGATG | 0.99 ± 0.021 |
| TGAGAGGGGT | 1.05 ± 0.042 |
| TGAGAGTAGG | 0.9839 ± 0.0072 |
| TGAGAGTGCG | 0.968 ± 0.027 |
| TGAGATAAGG | 0.987 ± 0.03 |
| TGAGATAGAT | 1 ± 0.013 |
| TGAGATCGGC | 0.992 ± 0.042 |
| TGAGCAGCTG | 0.953 ± 0.058 |
| TGAGCATGAA | 1 ± 0.024 |
| TGAGCCCTTT | 1.018 ± 0.0046 |
| TGAGCCGGGA | 1 ± 0.019 |
| TGAGCCTTGG | 0.995 ± 0.017 |
| TGAGCTAATG | 1.04 ± 0.043 |
| TGAGCTGGGT | 0.995 ± 0.02 |
| TGAGGAAATG | 1 ± 0.037 |
| TGAGGAGGGC | 1.02 ± 0.08 |

| Sequence | switch fluorescence ratio |
| --- | --- |
| TGAGGCCTAG | 1.02 ± 0.056 |
| TGAGGGACAT | 1.02 ± 0.046 |
| TGAGGGAGGT | 0.985 ± 0.03 |
| TGAGGGCAAG | 1.02 ± 0.022 |
| TGAGGGCCGA | 1.02 ± 0.13 |
| TGAGGGCGGG | 1.03 ± 0.056 |
| TGAGGGCGTT | 0.995 ± 0.031 |
| TGAGGGGGTG | 1 ± 0.029 |
| TGAGGGTACA | 0.984 ± 0.017 |
| TGAGGGTGCT | 1.04 ± 0.037 |
| TGAGGTATAT | 1.01 ± 0.015 |
| TGAGGTATGC | 0.994 ± 0.031 |
| TGAGGTCAGG | 0.982 ± 0.017 |
| TGAGGTCATT | 0.989 ± 0.028 |
| TGAGGTGGGG | 0.9887 ± 0.0027 |
| TGAGTATGGT | 1.002 ± 0.0059 |
| TGAGTATTTT | 0.992 ± 0.025 |
| TGAGTCCCGG | 1 ± 0.016 |
| TGAGTCGTGT | 0.9674 ± 0.0054 |
| TGAGTGAGGG | 1.01 ± 0.018 |
| TGAGTGCAGG | 1.02 ± 0.066 |
| TGAGTGTGTT | 0.962 ± 0.026 |
| TGAGTTATG | 1.0034 ± 0.00041 |

— the supplement of paper PMC10126150
